Five molecules from patent CN114904015A (JIANGSU MAIWEIKANG NEW DRUG RES AND DEVELOPMENT CO LTD, dated 2022) can be followed below.

The target of test [1] is T1, 人CLDN18.2 (human CLDN18.2), expressed on the cell surface (human, UniProt P56856-2 1-261).
T1 construct: whole, on cells; also called CHOK1细胞表面稳定表达人CLDN18.2; CHO/CLDN18.2
Kind of test: FACS (MFI) on CHO/CLDN18.2 cells, from 5 μg/mL in 3-fold dilutions.

Test [2] deals with T1, 人CLDN18.2 (human CLDN18.2), expressed …. Kind of test: cell-based or functional assay.
The target is the same in test [3]. Nature of the test: cell-based or functional assay. This is another data set of the same source.

Numbering of substitutions follows the chain as printed.

B1: 8k13-hz35 (antibody, IgG1, V domains shown)
VH: EVQLVQSGAEVKKPGSSVKVSCKASGYAFSNYWMNWVRQAPGQGLEWMGQIYPGSGDTKYSGKFQSRVTITADKSTSTAYMELSSLRSEDTAVYYCARFYYGNVMDYWGQGTLVTVSS
VL: DIVLTQSPDSLAVSLGERATINCKSSQTLLSGGNQKNYLTWYQQKPGQPPKLLIYWASTRESGVPDRFSGSGSGTDFTLTISSLQAEDVAVYYCQQGYSYPLTFGQGTKLEIK
notes: Humanised IgG1 / kappa; also called 本发明的裸抗-2; hz8k13-hz35; not shown: human kappa light chain constant region
On to B1, for which the binding result in test [1] is on record as “binds”.

B2: 16k15-hz35 (antibody, IgG1, V domains shown)
VH: EVQLVESGGGLVQPGGSLRLSCAGSGITLSTYAMSWVRQAPGKGLEWVSSIISGGITYYLDSVKGRFTISRDNAKNTLYLQMNSLRAEDTAVYYCARKYHGNALDYWGQGTLVTVSS
VL: B1 VL with L4M, T28S, G32S, K36R, L52K, G97N, S99F
notes: Humanised IgG1 / kappa; also called 本发明的裸抗-1; not shown: human kappa light chain constant region
Take B2: in test [1], the binding result is “binds”.

B3: 16k15-hz22 (antibody, V domains shown, not shown: large carriers)
VH: B2 VH with N83S
VL: B1 VL with L4M, T28S, G32S, K36R, L52K, V89L, Q96N, G97N, S99F
As for B3, in test [2], the “ADCC reporter (Jurkat FcγRIIIa-FcεRIaγ / NFAT-luciferase) EC50(nM), target-expressing BxPC3 cells” value was 0.176 nM; the “ADCC reporter (Jurkat FcγRIIIa-FcεRIaγ / NFAT-luciferase) EC50(nM), target-expressing CHOK1 cells” value is 0.712 nM; the “ADCC reporter (Jurkat FcγRIIIa-FcεRIaγ / NFAT-luciferase) EC50(nM), target-expressing NCI-N87 cells” value was 0.0677 nM. In test [3], the “CDC EC50(nM), BxPC3 cells stably expressing human CLDN18.2” value came out at 12.2 nM; the “CDC EC50(nM), CHOK1 cells stably expressing human CLDN18.2” value was 5.2 nM; the “CDC EC50(nM), NCI-N87 cells stably expressing human CLDN18.2” value was determined as 17.4 nM.

B4: 8k13-hz24 (antibody, V domains shown, not shown: large carriers)
VH: B1 VH with E1Q, S77N
VL: B1 VL with V89L
As for B4, in test [2], the “ADCC reporter (Jurkat FcγRIIIa-FcεRIaγ / NFAT-luciferase) EC50(nM), target-expressing BxPC3 cells” value was found to be 0.304 nM; the “ADCC reporter (Jurkat FcγRIIIa-FcεRIaγ / NFAT-luciferase) EC50(nM), target-expressing CHOK1 cells” value worked out at 0.589 nM; the “ADCC reporter (Jurkat FcγRIIIa-FcεRIaγ / NFAT-luciferase) EC50(nM), target-expressing NCI-N87 cells” value is 0.15 nM. Also, in test [3], the “CDC EC50(nM), BxPC3 cells stably expressing human CLDN18.2” value is 28.5 nM; the “CDC EC50(nM), CHOK1 cells stably expressing human CLDN18.2” value stood at 21.3 nM; the “CDC EC50(nM), NCI-N87 cells stably expressing human CLDN18.2” value amounted to 57.7 nM.

B5: IMAB362 (antibody, human IgG1, kappa, V domains shown)
VH: QVQLQQPGAELVRPGASVKLSCKASGYTFTSYWINWVKQRPGQGLEWIGNIYPSDSYTNYNQKFKDKATLTVDKSSSTAYMQLSSPTSEDSAVYYCTRSWRGNSFDYWGQGTTLTVSS
VL: DIVMTQSPSSLTVTAGEKVTMSCKSSQSLLNSGNQKNYLTWYQQKPGQPPKLLIYWASTRESGVPDRFTGSGSGTDFTLTISSVQAEDLAVYYCQNDYSYPFTFGSGTKLEIKR
In the case of B5, in test [2], the “ADCC reporter (Jurkat FcγRIIIa-FcεRIaγ / NFAT-luciferase) EC50(nM), target-expressing BxPC3 cells” value amounted to 0.106 nM; the “ADCC reporter (Jurkat FcγRIIIa-FcεRIaγ / NFAT-luciferase) EC50(nM), target-expressing CHOK1 cells” value is 0.593 nM; the “ADCC reporter (Jurkat FcγRIIIa-FcεRIaγ / NFAT-luciferase) EC50(nM), target-expressing NCI-N87 cells” value was 0.0909 nM. Also, in test [3], the “CDC EC50(nM), BxPC3 cells stably expressing human CLDN18.2” value is 52.2 nM; the “CDC EC50(nM), CHOK1 cells stably expressing human CLDN18.2” value was found to be 30.4 nM; the “CDC EC50(nM), NCI-N87 cells stably expressing human CLDN18.2” value amounted to 474 nM.
